System: Hmp1 (Ustilago maydis)
Assay: competition

Work on G/A mismatch 50-mer yielded a binding signal (equal to C/T competitor at 75 nM) of 1 fold.

G/C homoduplex 50-mer showed a binding signal (4-fold more homoduplex needed than C/T competitor, exact homoduplex pair not stated) of 4 fold.

In the case of cruciform DNA 61-mer, the binding signal (cruciform more effective competitor than C/T mismatch) is reported as 7.5 fold.
